Numbered stars: 1 amine (or outer) side, 2 acyl side, 3 side chain; on linkers, the order of the positions; unused ones are H or OH. Bridge positions count the residues as written; N and C are the ends. Square brackets hold non-standard residues; d marks the D form. Side chains are listed from the residue outwards. * marks the point of attachment. γGlu = O=C(O)[C@H](CCC(=O)[*:2])N[*:1]; Palmitoyl = CCCCCCCCCCCCCCCC(=O)*; Aib = CC(C)(N)C(=O)O
Assays:
[1] = target: human glucagon-like peptide 1 receptor (GLP-1R) (human, UniProt P43220 24-463); assay: cell-based or functional assay
[2] = target: human glucagon receptor (Glucagon-R) (human, UniProt P47871 26-477); assay: cell-based or functional assay
human glucagon receptor (Glucagon-R), sequence (P47871 26-477): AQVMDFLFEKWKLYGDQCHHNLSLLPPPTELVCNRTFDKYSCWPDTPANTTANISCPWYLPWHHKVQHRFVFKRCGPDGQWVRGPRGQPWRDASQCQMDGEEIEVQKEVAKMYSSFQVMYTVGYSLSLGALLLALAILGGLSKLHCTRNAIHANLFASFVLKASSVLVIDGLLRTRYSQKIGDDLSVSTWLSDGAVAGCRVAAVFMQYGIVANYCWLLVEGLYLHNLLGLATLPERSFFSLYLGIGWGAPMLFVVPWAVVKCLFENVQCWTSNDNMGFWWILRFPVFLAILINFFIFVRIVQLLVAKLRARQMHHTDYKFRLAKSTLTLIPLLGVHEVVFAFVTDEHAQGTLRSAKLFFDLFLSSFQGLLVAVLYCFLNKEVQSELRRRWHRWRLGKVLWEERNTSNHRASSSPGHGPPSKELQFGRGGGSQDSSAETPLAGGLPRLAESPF

Row | Binder | EC50 (nM) GLP-1R; cAMP content, HEK293 cells expressing human GLP-1R [1] [nM] | EC50 (nM) GuR; cAMP content, HEK293 cells expressing the human glucagon receptor [2] [nM]
1 | H-HSQGTFTSDYSKYLDSKAAHDFVEWLLKA-NH2 (lactam 24-28; SMILES CC(C)C[C@@H]1NC(=O)[C@H](CC(C)C)NC(=O)[C@H](Cc2c[nH]c3ccccc23)NC(=O)[C@@H](NC(=O)[C@@H](NC(=O)[C@H](Cc2ccccc2)NC(=O)[C@H](CC(=O)O)NC(=O)[C@H](Cc2c[nH]cn2)NC(=O)[C@H](C)NC(=O)[C@H](C)NC(=O)[C@H](CCCCN)NC(=O)[C@H](CO)NC(=O)[C@H](CC(=O)O)NC(=O)[C@H](CC(C)C)NC(=O)[C@H](Cc2ccc(O)cc2)NC(=O)[C@H](CCCCN)NC(=O)[C@H](CO)NC(=O)[C@H](Cc2ccc(O)cc2)NC(=O)[C@H](CC(=O)O)NC(=O)[C@H](CO)NC(=O)[C@@H](NC(=O)[C@H](Cc2ccccc2)NC(=O)[C@@H](NC(=O)CNC(=O)[C@H](CCC(N)=O)NC(=O)[C@H](CO)NC(=O)[C@@H](N)Cc2c[nH]cn2)[C@@H](C)O)[C@@H](C)O)C(C)C)CCC(=O)NCCCC[C@@H](C(=O)N[C@@H](C)C(N)=O)NC1=O) [Compound 261] | 0.03 | 0.07
2 | H-H[dS]QGTFTSDYSKYLDSKAAHDFVEWLLRA-NH2 (SMILES CC(C)C[C@H](NC(=O)[C@H](CC(C)C)NC(=O)[C@H](Cc1c[nH]c2ccccc12)NC(=O)[C@H](CCC(=O)O)NC(=O)[C@@H](NC(=O)[C@H](Cc1ccccc1)NC(=O)[C@H](CC(=O)O)NC(=O)[C@H](Cc1c[nH]cn1)NC(=O)[C@H](C)NC(=O)[C@H](C)NC(=O)[C@H](CCCCN)NC(=O)[C@H](CO)NC(=O)[C@H](CC(=O)O)NC(=O)[C@H](CC(C)C)NC(=O)[C@H](Cc1ccc(O)cc1)NC(=O)[C@H](CCCCN)NC(=O)[C@H](CO)NC(=O)[C@H](Cc1ccc(O)cc1)NC(=O)[C@H](CC(=O)O)NC(=O)[C@H](CO)NC(=O)[C@@H](NC(=O)[C@H](Cc1ccccc1)NC(=O)[C@@H](NC(=O)CNC(=O)[C@H](CCC(N)=O)NC(=O)[C@@H](CO)NC(=O)[C@@H](N)Cc1c[nH]cn1)[C@@H](C)O)[C@@H](C)O)C(C)C)C(=O)N[C@@H](CCCNC(=N)N)C(=O)N[C@@H](C)C(N)=O) [Compound 44] | 0.09 | 0.11
3 | H-HSQGTFTSDYSKYLDK([γGlu-Palmitoyl])KAAHDFVEWLLRA-NH2 (SMILES CCCCCCCCCCCCCCCC(=O)N[C@@H](CCC(=O)NCCCC[C@H](NC(=O)[C@H](CC(=O)O)NC(=O)[C@H](CC(C)C)NC(=O)[C@H](Cc1ccc(O)cc1)NC(=O)[C@H](CCCCN)NC(=O)[C@H](CO)NC(=O)[C@H](Cc1ccc(O)cc1)NC(=O)[C@H](CC(=O)O)NC(=O)[C@H](CO)NC(=O)[C@@H](NC(=O)[C@H](Cc1ccccc1)NC(=O)[C@@H](NC(=O)CNC(=O)[C@H](CCC(N)=O)NC(=O)[C@H](CO)NC(=O)[C@@H](N)Cc1c[nH]cn1)[C@@H](C)O)[C@@H](C)O)C(=O)N[C@@H](CCCCN)C(=O)N[C@@H](C)C(=O)N[C@@H](C)C(=O)N[C@@H](Cc1c[nH]cn1)C(=O)N[C@@H](CC(=O)O)C(=O)N[C@@H](Cc1ccccc1)C(=O)N[C@H](C(=O)N[C@@H](CCC(=O)O)C(=O)N[C@@H](Cc1c[nH]c2ccccc12)C(=O)N[C@@H](CC(C)C)C(=O)N[C@@H](CC(C)C)C(=O)N[C@@H](CCCNC(=N)N)C(=O)N[C@@H](C)C(N)=O)C(C)C)C(=O)O) [Compound 202] | 0.2 | 0.13
4 | H-HSQGTFTSDYSKYLDSKAAHDFVEWLK([γGlu-Palmitoyl])RA-NH2 (SMILES CCCCCCCCCCCCCCCC(=O)N[C@@H](CCC(=O)NCCCC[C@H](NC(=O)[C@H](CC(C)C)NC(=O)[C@H](Cc1c[nH]c2ccccc12)NC(=O)[C@H](CCC(=O)O)NC(=O)[C@@H](NC(=O)[C@H](Cc1ccccc1)NC(=O)[C@H](CC(=O)O)NC(=O)[C@H](Cc1c[nH]cn1)NC(=O)[C@H](C)NC(=O)[C@H](C)NC(=O)[C@H](CCCCN)NC(=O)[C@H](CO)NC(=O)[C@H](CC(=O)O)NC(=O)[C@H](CC(C)C)NC(=O)[C@H](Cc1ccc(O)cc1)NC(=O)[C@H](CCCCN)NC(=O)[C@H](CO)NC(=O)[C@H](Cc1ccc(O)cc1)NC(=O)[C@H](CC(=O)O)NC(=O)[C@H](CO)NC(=O)[C@@H](NC(=O)[C@H](Cc1ccccc1)NC(=O)[C@@H](NC(=O)CNC(=O)[C@H](CCC(N)=O)NC(=O)[C@H](CO)NC(=O)[C@@H](N)Cc1c[nH]cn1)[C@@H](C)O)[C@@H](C)O)C(C)C)C(=O)N[C@@H](CCCNC(=N)N)C(=O)N[C@@H](C)C(N)=O)C(=O)O) [Compound 203] | 0.57 | 0.22
5 | H-H[Aib]QGTFTSDYSKYLDSK([γGlu-Palmitoyl])AARDFVAWLLRA-NH2 (SMILES CCCCCCCCCCCCCCCC(=O)N[C@@H](CCC(=O)NCCCC[C@H](NC(=O)[C@H](CO)NC(=O)[C@H](CC(=O)O)NC(=O)[C@H](CC(C)C)NC(=O)[C@H](Cc1ccc(O)cc1)NC(=O)[C@H](CCCCN)NC(=O)[C@H](CO)NC(=O)[C@H](Cc1ccc(O)cc1)NC(=O)[C@H](CC(=O)O)NC(=O)[C@H](CO)NC(=O)[C@@H](NC(=O)[C@H](Cc1ccccc1)NC(=O)[C@@H](NC(=O)CNC(=O)[C@H](CCC(N)=O)NC(=O)C(C)(C)NC(=O)[C@@H](N)Cc1c[nH]cn1)[C@@H](C)O)[C@@H](C)O)C(=O)N[C@@H](C)C(=O)N[C@@H](C)C(=O)N[C@@H](CCCNC(=N)N)C(=O)N[C@@H](CC(=O)O)C(=O)N[C@@H](Cc1ccccc1)C(=O)N[C@H](C(=O)N[C@@H](C)C(=O)N[C@@H](Cc1c[nH]c2ccccc12)C(=O)N[C@@H](CC(C)C)C(=O)N[C@@H](CC(C)C)C(=O)N[C@@H](CCCNC(=N)N)C(=O)N[C@@H](C)C(N)=O)C(C)C)C(=O)O) [Compound 207] | 0.12 | 0.17
6 | H-HSQGTFTSDYSKYLDSK([γGlu-Palmitoyl])AAHDFVEWLLRA-NH2 (SMILES CCCCCCCCCCCCCCCC(=O)N[C@@H](CCC(=O)NCCCC[C@H](NC(=O)[C@H](CO)NC(=O)[C@H](CC(=O)O)NC(=O)[C@H](CC(C)C)NC(=O)[C@H](Cc1ccc(O)cc1)NC(=O)[C@H](CCCCN)NC(=O)[C@H](CO)NC(=O)[C@H](Cc1ccc(O)cc1)NC(=O)[C@H](CC(=O)O)NC(=O)[C@H](CO)NC(=O)[C@@H](NC(=O)[C@H](Cc1ccccc1)NC(=O)[C@@H](NC(=O)CNC(=O)[C@H](CCC(N)=O)NC(=O)[C@H](CO)NC(=O)[C@@H](N)Cc1c[nH]cn1)[C@@H](C)O)[C@@H](C)O)C(=O)N[C@@H](C)C(=O)N[C@@H](C)C(=O)N[C@@H](Cc1c[nH]cn1)C(=O)N[C@@H](CC(=O)O)C(=O)N[C@@H](Cc1ccccc1)C(=O)N[C@H](C(=O)N[C@@H](CCC(=O)O)C(=O)N[C@@H](Cc1c[nH]c2ccccc12)C(=O)N[C@@H](CC(C)C)C(=O)N[C@@H](CC(C)C)C(=O)N[C@@H](CCCNC(=N)N)C(=O)N[C@@H](C)C(N)=O)C(C)C)C(=O)O) [Compound 262] | 0.11 | 0.12
7 | H-HSQGTFTSDYSAYLDSRRAQDFVWLMNT-NH2 [Compound 242] | 1.4 | 0.4
8 | H-H[Aib]QGTFTSDYSKYLDSKAAHDFVEWLLRA-NH2 (SMILES CC(C)C[C@H](NC(=O)[C@H](CC(C)C)NC(=O)[C@H](Cc1c[nH]c2ccccc12)NC(=O)[C@H](CCC(=O)O)NC(=O)[C@@H](NC(=O)[C@H](Cc1ccccc1)NC(=O)[C@H](CC(=O)O)NC(=O)[C@H](Cc1c[nH]cn1)NC(=O)[C@H](C)NC(=O)[C@H](C)NC(=O)[C@H](CCCCN)NC(=O)[C@H](CO)NC(=O)[C@H](CC(=O)O)NC(=O)[C@H](CC(C)C)NC(=O)[C@H](Cc1ccc(O)cc1)NC(=O)[C@H](CCCCN)NC(=O)[C@H](CO)NC(=O)[C@H](Cc1ccc(O)cc1)NC(=O)[C@H](CC(=O)O)NC(=O)[C@H](CO)NC(=O)[C@@H](NC(=O)[C@H](Cc1ccccc1)NC(=O)[C@@H](NC(=O)CNC(=O)[C@H](CCC(N)=O)NC(=O)C(C)(C)NC(=O)[C@@H](N)Cc1c[nH]cn1)[C@@H](C)O)[C@@H](C)O)C(C)C)C(=O)N[C@@H](CCCNC(=N)N)C(=O)N[C@@H](C)C(N)=O) [Compound 45] | 0.08 | 0.06
9 | H-H[Aib]QGTFTSDYSKYLDSK([γGlu-Palmitoyl])AAHDFVEWLLSA-NH2 (SMILES CCCCCCCCCCCCCCCC(=O)N[C@@H](CCC(=O)NCCCC[C@H](NC(=O)[C@H](CO)NC(=O)[C@H](CC(=O)O)NC(=O)[C@H](CC(C)C)NC(=O)[C@H](Cc1ccc(O)cc1)NC(=O)[C@H](CCCCN)NC(=O)[C@H](CO)NC(=O)[C@H](Cc1ccc(O)cc1)NC(=O)[C@H](CC(=O)O)NC(=O)[C@H](CO)NC(=O)[C@@H](NC(=O)[C@H](Cc1ccccc1)NC(=O)[C@@H](NC(=O)CNC(=O)[C@H](CCC(N)=O)NC(=O)C(C)(C)NC(=O)[C@@H](N)Cc1c[nH]cn1)[C@@H](C)O)[C@@H](C)O)C(=O)N[C@@H](C)C(=O)N[C@@H](C)C(=O)N[C@@H](Cc1c[nH]cn1)C(=O)N[C@@H](CC(=O)O)C(=O)N[C@@H](Cc1ccccc1)C(=O)N[C@H](C(=O)N[C@@H](CCC(=O)O)C(=O)N[C@@H](Cc1c[nH]c2ccccc12)C(=O)N[C@@H](CC(C)C)C(=O)N[C@@H](CC(C)C)C(=O)N[C@@H](CO)C(=O)N[C@@H](C)C(N)=O)C(C)C)C(=O)O) [Compound 208] | 0.11 | 0.16

— US20130157953A1, “TREATMENT OF CARDIAC CONDITIONS” (Zealand Pharma A/S, priority 2010, published 2013)
